Measured values published in the nanobody polyreactivity screen of Harvey et al. (2022).

Assay: yeast display, Sf9 membrane polyspecificity reagent, FACS + sequencing; frameworks hold sequencing errors
In short: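 Galactose-induced (36–48 hours) yeast carrying a synthetic nanobody display library were exposed to 10% biotinylated, detergent-solubilized Sf9 membrane reagent at 4 °C for 1 hour. FACS followed streptavidin microbead enrichment, using low and high (top ~1%) gates for expression (anti-HA) and reagent binding (streptavidin). Colony PCR, MiSeq 2 × 250 sequencing and CDR-length filtering followed. Labels for polyreactivity reflect the gate of origin.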

Row | Sequence | polyreactivity (PSR sort gate)
1 | QVQLVESGGGLVQAGGSLRLSCAASGRIFWAYAMGWYRQAPGKERELVAGITFTGGRTYYADSVKGRFTISRDNAKNTVYLQMNSLKPEDTAVYYCAAAGLDVGRKDRDGYWGQGTQVTVSS | low polyreactivity
2 | QVQLVESGGGLVQAGGSLRLSCAASGRIFWGNALGWYRQAPGKVRELVAAITRRGGTTFYADSVKGRFTISRDNAKNTVYLQKNSLKPEDTAGYYCAARRYCQYDGYDSGGQGTQVTVSS | high polyreactivity
3 | QVQLVESGGGLVQAGGSLRLSCAASGRIFWGNAMGWYRQAPGKERELVAAISSSGGSTYYADSVKGRFTISRDNAKNTVYLQMNSLKPEDTAVYYCAARYPTYYYRYDYWGQGTQVTVSS | high polyreactivity
4 | QVQLVESGGGLVQAGGSLRLSCAASGRIFWGYAMGWYRQAPGKERELVARITSGGDTYYADSVKGRFTISRDNAKNTVYLQMNSLKPEDTAVYYCNADVGTEWDNYPEVDYWGQGTQVTVSS | low polyreactivity
5 | QVQLVESGGGLVQAGGSLRLSCAASGRIFWGYDMGWYRQAPGKERELVAAINWSGGITNYADSVKGRFTISRDNAKNTVYLQMNSLKPEDTAVYYCAADTYWHRYYWGQGTQVTVSS | high polyreactivity
6 | QVQLVESGGGLVQAGGSLRLSCAASGRIFWPYAMGWYRPAPGKERELVAAITSGGSTYYADSVKGRFTISRDNAKNTVYLQMNSLKPEVTAVYYCAKRSSGVSVPVAYGGIKRYNSWGQGTQVTVSS | low polyreactivity
7 | QVQLVESGGGLVQAGGSLRLSCAASGRIFWPYAMGWYRQAPGKERELVAAISRGGSTYYADSVKGRFTISRDNAKNTVYLQINSLKPEDTAVYYCAVAFRGSYRPAYYYWRQGTQVTVSS | high polyreactivity
8 | QVQLVESGGGLVQAGGSLRLSCAASGRIFWPYAMGWYRQAPGKERELVAAISWGDGTTYYADSVKGRFTISRDNAKNTVYLQMNSLKPEDTAVYYCAVELWPDYVTDIRYYDGFDYWGQGTQVTVSS | low polyreactivity
9 | QVQLVESGGGLVQAGGSLRLSCAASGRIFWPYAMGWYRQAPGKERELVAAITSGGSTYYADSVKGRFTISRDNAKNTVYLQMNSLKPEDTAVYYCNAKLRRHYDHLYDYWGQGTQVTVSS | low polyreactivity
10 | QVQLVESGGGLVQAGGSLRLSCAASGRIFWRYAMGWYRQAPGKERELVAGITYSGGRTYYADSVKGRFTISRDNAKNTVYLQMNSLTPEDTAVYYCAARGYFDALFDYWGQGTQVTVSS | low polyreactivity
11 | QVQLVESGGGLVQAGGSLRLSCAASGRIFWRYAMGWYRQAPGKERQLVAGITYSGGRTYYADSVKGRFTISRDNAKNTVYLQMNSLKPEDTAVYYCAARGYFDALFDYWGQGTQVTVSS | low polyreactivity
12 | QVQLVESGGGLVQAGGSLRLSCAASGRIFWSNAMGWYRQAPGKERELVAAISYSGGSTYYADSVKGRFTISRDNAKNTVYLQMNSLKPEDTAVYYCAALFRPRVHRFDYWGQGTQVTVSS | low polyreactivity
13 | QVQLVESGGGLVQAGGSLRLSCAASGRIFWSYAMGWYRPAPGKERELVAAISYSGGGTYYADSVKGRFTISRDNAKNTVYLQMNSLKPEDTAVYYCAAETYYAPYDYWGQGTQVTVSS | high polyreactivity
14 | QVQLVESGGGLVQAGGSLRLSCAASGRIFWTYAMGWYRQAPGKERELVASITWSGGSTYYADSVKGRFTISRDNAKNTVYLQMNSLKPEDTAVYYCHTDVLAPYDSGYWGQGTQVTVSS | low polyreactivity
15 | QVQLVESGGGLVQAGGSLRLSCAASGRIFWYYAMGGYRQAPGKEREFVATINTSGGSTYYADSLKGRFTISRDYARSTVCLQMNSLTPEDTAVYYCYAACRYYRTEYYSWGQGTQVTVSS | low polyreactivity
16 | QVQLVESGGGLVQAGGSLRLSCAASGRIFWYYAMGWSRQAPGKERELVATISSRSGSTYYADSVKGRFTISRDNAKNTVYLQMNSLKPEDTAVYYCAAGTPYYLGYRHNTGLFDYWGQGTQVTVSS | high polyreactivity
17 | QVQLVESGGGLVQAGGSLRLSCAASGRIFWYYAMGWYRQAPGKERELVAAISWSGGTTYYADSVKGRFTISRDNAKNTVYLQMNSLKPEDTAVYYCAAVFQYGYGEDYWGQGTQVTVSS | high polyreactivity
18 | QVQLVESGGGLVQAGGSLRLSCAASGRIFWYYAMGWYRQAPGKERELVARITSGGRTYYADSVKGRFTISRDNAKNTVYLQMNSLKPEDTAVYYCARRGRKAYGYWGQGTQVTVSS | high polyreactivity
19 | QVQLVESGGGLVQAGGSLRLSCAASGRIFWYYAMGWYRQAPGKERELVASITRGNNTYYADSVKGRFTISRDNAKNPVYLQMNSLIPEDTAVYYCNAYRVRYTVDSVFYGYDYWGQGTHVTVSS | high polyreactivity
20 | QVQLVESGGGLVQAGGSLRLSCAASGRIFWYYSMGRYRQAPATEREVVATITTRSGSTYYADSVKGRFTISRDNAKNTVYLQMNSMKPEDTAGYYCAADWPLLYTGSHSQTKYGYWGQGTQVTVSS | high polyreactivity
21 | QVQLVESGGGLVQAGGSLRLSCAASGRIFWYYVMGWSRQAPGKEREFVASISSGGSTYYADSVKGRFTISRDNAKNTVYLQMNSLKPEDTAVYYCNAYVYGQRVWYDYWGQGTQVTVSS | high polyreactivity
22 | QVQLVESGGGLVQAGGSLRLSCAASGRIFYANAMGWYRQAPGKERELVAAISSGGSTYYADSVKGRFTISRDNAKNTVYLKMYSLKPEDTAVYYCAASTVGQTFSYYVDTYDYWGQGTQVTVSS | low polyreactivity

Row | Sequence | polyreactivity (PSR sort gate)
23 | QVQLVESGGGLVQAGGSLRLSCAASGRIFYANAMGWYRQAPGKERELVAGISSGGITNYADSVKGRFTISRDNAKITVYLQMNSLKPEDTAVYYCAVESWNRWRNRNDYWGQGTQVTVSS | low polyreactivity
24 | QVQLVESGGGLVQAGGSLRLSCAASGRIFYAYAMGWYRQAPGKERELVAGISRGSSTNYADSVKGRFTISRDNAKNTVYLQMNSLKPEDTAVYYSAADVHRRGRYHSTYDYWGQGTQVTVSS | low polyreactivity
25 | QVQLVESGGGLVQAGGSLRLSCAASGRIFYAYVMGWYRQAPGKERELVAAITSSGGSTYYADSVKGRFTISRDNAKNTVYLQMNSLKPEDTAVYYCNARSYPRWLRYDYWGQGTQVTVSS | low polyreactivity
26 | QVQLVESGGGLVQAGGSLRLSCAASGRIFYAYVMGWYRQAPGKERELVADITSSGSTNYADSVKGRFTISRDNAKNTVYLQMNSLKPEDTAVYYCAKVPYAYQVRRKFGYWGQGTQVTVSS | low polyreactivity
27 | QVQLVESGGGLVQAGGSLRLSCAASGRIFYDNTMGWYRQAPGKERELVAAISVSGGRTYYADSVKGRFTISRDNAKNTVYLQLNSLKPEDTAVYYCAADRGGEYWGQGTQVTVSS | high polyreactivity
28 | QVQLVESGGGLVQAGGSLRLSCAASGRIFYEYAMGWYRQAPGKERELVAAITRGDSTYYADSVKGRFTISRDNAKNTVYLQMNSLKPEDTAVYFCNAGVFDYSGDSNYWGQGTQVTVSS | low polyreactivity
29 | QVQLVESGGGLVQAGGSLRLSCAASGRIFYFNGMGWYRQAPGKERELVASISASGDRTYYADSVKGRFTISRDNAKNTVYLQMNSLKPEDTAVYYCATDANTYTKYDYWGQGTQVTVSS | low polyreactivity
30 | QVQLVESGGGLVQAGGSLRLSCAASGRIFYFYAIGWYRQAPGKERELVASITSAGSTYYADSVKGRFTISRDNAKNTVYLQMNSLKPADTAVYYCARVRWGSRGGYIAYYGGGYWGQGTQVTVSS | high polyreactivity
31 | QVQLVESGGGLVQAGGSLRLSCAASGRIFYFYAMGWYRQAPGKERELVAAISTSGGSTYYADSVKGRFTISRDNAKNTVYLQMNRLKPEDTAVYYCASRFRYYGSEYDYWGQGTQVTVSS | low polyreactivity
32 | QVQLVESGGGLVQAGGSLRLSCAASGRIFYGNAMGWYRQAPGKERELVATISSSGGRTTYADSVKGRFTISRDNAKNTVYLQMNSLKPEDTAVYYCNARYRTRSLKYYYWGQGTQVTVSS | high polyreactivity
33 | QVQLVESGGGLVQAGGSLRLSCAASGRIFYGNVIGWYRQAPGKERELVADIYYDGGSTYYADSVKGRFTISRDNAKNTVYLQMNSLKPEDTAVYYCNKREVFIYGTTYDYWGQGTQVTVSS | low polyreactivity
34 | QVQLVESGGGLVQAGGSLRLSCAASGRIFYGNVMGWYRQAPGKERELVAVITSGGNTNYADSVKGRFTISRDNAKNTVYLQMNSLKPEDTAVYYCATAVVAGVWGYDYWGQGTQVSVSS | low polyreactivity
35 | QVQLVESGGGLVQAGGSLRLSCAASGRIFYGYAMGWYRQAPGKERELVAAISSSGGSTYYADSVKGRFTISRDNAKNTVYLQMNSLKPEDTAVYYCNAQRYRPGYWYDYWGQGTQVTVSS | high polyreactivity
36 | QVQLVESGGGLVQAGGSLRLSCAASGRIFYGYAMGWYRQAPGKERELVAAITWSGGRTYYADSVKGRFTISRDNAKNTVYLQMNSLKPEDTAVYYCNRPRRTSPSTYYHWGQGTQVTVSS | low polyreactivity
37 | QVQLVESGGGLVQAGGSLRLSCAASGRIFYGYAMGWYRQAPGKERELVASISRRGSSTYYADSVKGRFTISRDNAMNTVYLQMNSLKPEDTAVYYCAAGYYPFNYWGQGTQVTVSS | high polyreactivity
38 | QVQLVESGGGLVQAGGSLRLSCAASGRIFYHNAMGWYRQAPGKEREFVAAINWRGGNTYYADSVKGRFTISRDNAKITVYLQMNSLKPEDTAVYYCNALYKRYTDYDYWGQGTQVTVSS | high polyreactivity
39 | QVQLVESGGGLVQAGGSLRLSCAASGRIFYHNAMGWYRQAPGKERELVAAISWSGGNTYYADSVKGRFTISRDNAKNTVYLQMNSLKPEDTAVYYCNRYWYRDRLWLYDYWGQGTQVTVSS | high polyreactivity
40 | QVQLVESGGGLVQAGGSLRLSCAASGRIFYHNARGWYRQAPGKERELVAAIYSTGGSTYYADSVKGRFTISRDNAKNTVYLQMNSLKPEDTAVYYCATQYFRKYGYDYWGKGTQVTVSS | low polyreactivity
41 | QVQLVESGGGLVQAGGSLRLSCAASGRIFYHYAMGWYRQAPGKERELVATISASGSRTSYADSVKGRFTISRDNAKNTVYLQMNSLKPEDTGVYYCAADAPFWYGLDYWGQGTQVTVSS | high polyreactivity
42 | QVQLVESGGGLVQAGGSLRLSCAASGRIFYIHAMGWYRQAPGKERELVAAITSNGGSTYYADSVKGRFTISRDNAKNTVYLQMNCLKPEDTAVYYCAARRYKVSRTSYGYGYWGQGTQVTVSS | high polyreactivity
43 | QVQLVESGGGLVQAGGSLRLSCAASGRIFYINAMGWYRQAPGKERELVAAISGSGGDTYYADSVKGRFTISRDNAKNTVYLQMNSMKPEDTAVYYCGAEVYTWGQGTQVTVSS | low polyreactivity
